Patent publication US20190263932A1 (Eli Lilly, published 2019)

What was measured:
[1] = molecular target: T1, recombinant human TrkA protein (human, UniProt P04629-2 34-407, limits assumed); assay: NGF-blocking ELISA on coated human TrkA, 100 nM btNGF; mAb 0.63 nM
Method: (§1) Each row of a 96-well high-binding clear-bottom microtiter plate (Microlon, #655061) was coated overnight at 4° C. with 100 μL/well of recombinant human TrkA protein, diluted to 2 μg/mL in phosphate buffered saline, pH 7.2 (PBS). The next day, the coating solution was removed, and the plate was blocked with 150 μL of Casein-PBS (Thermo Scientific, #37528) for 1 hour at 25° C. with gentle shaking. The plate was then washed three times with PBS supplemented with 0.05% Tween20 (PBST). A two-fold dilution series of exemplified antibodies, along with IgG4 and IgG1 isotype control antibodies, was generated starting at 20 nM in Casein-PBS. 100 μL of the each dilution series sample was added to a well for 30 min at 37° C. with gentle shaking. The plate was then washed three times with PBST. […] The plate was then washed three times with PBST. A 1:3500 dilution of a 1 mg/mL stock solution of streptavidin-HRP (Thermo Scientific, #21130) in Casein-PBS was prepared and […] was added to each well for 20 min at 37° C. with gentle shaking. The plate was washed three times with PBST. […] The reaction was stopped by addition of 100 μL of 1M H₃PO₄ to each well. The absorbance at 450 nm (Abs450) was measured using a SpectraMax 340PC plate reader (Molecular Devices).

[2] = molecular target: T1, recombinant human TrkA protein; assay: NGF-blocking ELISA on coated human TrkA, 100 nM btNGF; mAb 5 nM
Method: as §1

[3] = molecular target: T2, rat TrkA receptor expressed in transfected HEK293 cells (rat, UniProt P35739 33-799); assay: cell-based or functional assay
[4] = molecular target: T1, recombinant human TrkA protein; assay: NGF-blocking ELISA on coated human TrkA, 100 nM btNGF; mAb 10 nM
Method: as §1

[5] = molecular target: T1, recombinant human TrkA protein; assay: NGF-blocking ELISA on coated human TrkA, 100 nM btNGF; mAb 0.08 nM
Method: as §1

[6] = molecular target: T1, recombinant human TrkA protein; assay: NGF-blocking ELISA on coated human TrkA, 100 nM btNGF; mAb 0.16 nM
Method: as §1

[7] = molecular target: T1, recombinant human TrkA protein; assay: NGF-blocking ELISA on coated human TrkA, 100 nM btNGF; mAb 1.25 nM
Method: as §1

[8] = molecular target: T1, recombinant human TrkA protein; assay: NGF-blocking ELISA on coated human TrkA, 100 nM btNGF; mAb 0.04 nM
Method: as §1

[9] = molecular target: T2, rat TrkA receptor expressed in …; assay: cell-based or functional assay; remark: listed apart in the source
[10] = molecular target: T1, recombinant human TrkA protein; assay: NGF-blocking ELISA on coated human TrkA, 100 nM btNGF
Method: as §1

[11] = molecular target: T3, Human TrkA Extracellular Domain Isoform 2 (33-408) (human, UniProt P04629 33-414); assay: SPR, mAb captured on Protein A chip, 37 C
T3 construct: SPR analyte; also called Human TrkA Isoform 2
Method: Antibodies are captured onto a Series-S Sensor Protein A CM5 chip (GE Healthcare). For each channel, Flow Cell 1 (FC1) is designated as a buffer reference and Flow Cell 2 (FC2) is designated for antibody capture. All FC2 on all eight channels are set to capture approximately 89 response units (RU) of antibody at a flow rate of 10 μL/min. All antibody samples are prepared at 5 μg/mL by dilution into the running buffer. […] Before the analysis cycle, the chip is regenerated with 3 injections of glycine (pH ˜1.5) at 100 μL/min for a contact time of 15 seconds on FC1 and FC2 in order to clean the surface of the chip. […] This is repeated for each antibody evaluated. Data is processed using predefined antibody parallel kinetics with reference subtraction and fit to a 1:1 binding model using BIACORE™ 8K evaluation software (version 1.1.1.7442) to determine the association rate (on-rate, kon, M⁻¹s⁻¹ units) and the dissociation rate (off-rate, koff, s⁻¹ units). The equilibrium dissociation constant (KD) is calculated from the relationship KD=koff/kₒₙ, in molar units. The average (Avg) KD and error, reported as the standard deviation (SD), is determined from three independent experiments.

T1 sequence (P04629 other isoform, or with tags, fused parts or gaps limits assumed): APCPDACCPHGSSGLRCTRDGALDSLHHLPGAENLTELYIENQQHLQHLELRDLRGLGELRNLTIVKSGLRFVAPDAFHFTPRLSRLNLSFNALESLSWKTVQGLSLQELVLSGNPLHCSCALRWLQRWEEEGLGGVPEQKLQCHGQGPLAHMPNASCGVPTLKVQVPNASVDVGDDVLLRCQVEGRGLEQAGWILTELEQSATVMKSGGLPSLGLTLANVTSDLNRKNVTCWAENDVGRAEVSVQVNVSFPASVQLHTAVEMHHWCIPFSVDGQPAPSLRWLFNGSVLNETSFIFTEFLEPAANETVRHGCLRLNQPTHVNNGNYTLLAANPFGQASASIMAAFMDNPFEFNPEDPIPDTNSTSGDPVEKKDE
T3 sequence (P04629 other isoform, or with tags, fused parts or gaps): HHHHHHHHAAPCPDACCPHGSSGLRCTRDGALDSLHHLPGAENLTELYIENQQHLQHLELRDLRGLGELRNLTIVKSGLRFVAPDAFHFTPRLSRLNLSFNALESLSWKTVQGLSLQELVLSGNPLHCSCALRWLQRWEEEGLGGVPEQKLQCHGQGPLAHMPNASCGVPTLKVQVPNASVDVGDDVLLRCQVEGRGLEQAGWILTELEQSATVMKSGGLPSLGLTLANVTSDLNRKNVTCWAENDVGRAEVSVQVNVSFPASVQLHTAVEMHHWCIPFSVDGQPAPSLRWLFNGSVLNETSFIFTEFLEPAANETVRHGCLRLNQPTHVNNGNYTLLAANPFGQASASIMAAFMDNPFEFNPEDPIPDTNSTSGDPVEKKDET
T2 sequence (P35739 33-799): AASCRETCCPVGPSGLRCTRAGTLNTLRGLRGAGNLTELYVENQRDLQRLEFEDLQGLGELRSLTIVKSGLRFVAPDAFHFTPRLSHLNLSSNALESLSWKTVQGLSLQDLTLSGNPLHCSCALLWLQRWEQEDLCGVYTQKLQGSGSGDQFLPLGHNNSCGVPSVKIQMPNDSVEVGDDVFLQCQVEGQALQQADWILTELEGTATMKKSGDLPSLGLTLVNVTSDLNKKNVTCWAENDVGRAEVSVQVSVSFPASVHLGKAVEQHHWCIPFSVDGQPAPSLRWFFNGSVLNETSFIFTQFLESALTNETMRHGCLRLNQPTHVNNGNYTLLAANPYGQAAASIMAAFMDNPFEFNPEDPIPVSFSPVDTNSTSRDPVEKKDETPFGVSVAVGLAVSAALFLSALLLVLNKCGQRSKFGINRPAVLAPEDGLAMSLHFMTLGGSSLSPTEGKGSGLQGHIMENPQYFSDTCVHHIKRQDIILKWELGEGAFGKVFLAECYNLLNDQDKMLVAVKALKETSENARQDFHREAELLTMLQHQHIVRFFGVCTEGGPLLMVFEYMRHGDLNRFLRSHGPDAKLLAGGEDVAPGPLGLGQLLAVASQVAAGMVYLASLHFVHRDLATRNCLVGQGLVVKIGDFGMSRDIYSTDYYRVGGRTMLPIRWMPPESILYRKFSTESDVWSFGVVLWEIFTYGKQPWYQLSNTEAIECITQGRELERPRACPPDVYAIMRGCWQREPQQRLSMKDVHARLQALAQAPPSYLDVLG

Absorbance 450 nm [1]	Absorbance 450 nm [2]	% Max stimulation, pTrkA [3] [%]	EC50 (nM), pTrkA [3] [nM]	pTrkA counts per second, 0.1 pM mAb, no NGF [3] [counts per second]	pTrkA counts per second, 1 pM mAb, no NGF [3] [counts per second]	pTrkA counts per second, 10 pM mAb, no NGF [3] [counts per second]	pTrkA counts per second, 100 pM mAb, no NGF [3] [counts per second]	pTrkA counts per second, 1 nM mAb, no NGF [3] [counts per second]	pTrkA counts per second, 10 nM mAb, no NGF [3] [counts per second]	pTrkA counts per second, 100 nM mAb, no NGF [3] [counts per second]	pTrkA counts per second, 1 uM mAb, no NGF [3] [counts per second]	Absorbance 450 nm [4]	Absorbance 450 nm [5]	Absorbance 450 nm [6]	Absorbance 450 nm [7]	Absorbance 450 nm [8]	% Max Inhibition, pTrkA [9] [%]	IC50 (nM), pTrkA [9] [nM]	pTrkA counts per second, NGF +0.1 pM mAb [9] [counts per second]	Binder	other results
0.38	0.2	18	0.88	171000	174000	227000	203000	442000	640000	572000	493000	0.2	1.03	0.87	0.26	1.09	82	0.57	1.83e+06	mAb A (antibody, human IgG4 S228P, kappa, F234A L235A, V domains shown, Human IgG4PAA/Kappa) VH: EVQLVESGGGLVKPGGSLRLSCAASGFTFSGVSINWVRQAPGKGLEWVSSETTSSGTIYYADSVKGRFTISRDNAKNSLYLQMNSLRAEDTAVYYCARSYYYGMDVWGQGTTVTVSS VL: DIVMTQTPLSSPVTLGQPASISCRSSQSLVHRNGNTYLSWLQQRPGQPPRLLIYKISNRFSGVPDRFSGSGAGTDFTLKISRVEAEDVGVYYCMQARQFPLTFGGGTKVEIKR	pTrkA counts per second, NGF +1 pM mAb [9]: 2.09e+06 counts per second; pTrkA counts per second, NGF +10 pM mAb [9]: 2.2e+06 counts per second; pTrkA counts per second, NGF +100 pM mAb [9]: 1.69e+06 counts per second; pTrkA counts per second, NGF +1 nM mAb [9]: 1.15e+06 counts per second; pTrkA counts per second, NGF +10 nM mAb [9]: 710000 counts per second; pTrkA counts per second, NGF +100 nM mAb [9]: 544000 counts per second; pTrkA counts per second, NGF +1 uM mAb [9]: 580000 counts per second; IC50 [10]: 0.34 nM
0.25	0.15	38	0.98	748000	844000	638000	758000	1.4e+06	2.1e+06	2.08e+06	1.86e+06	0.14	0.75	0.7	0.17	0.87	42	0.72	4.79e+06	mAb B (antibody, human IgG4 S228P, kappa, F234A L235A, Human IgG4PAA/Kappa) heavy: not shown light: DIVMTQTPLSSPVTLGQPASISCRSSQSLVHRAGNTYLSWLQQRPGQPPRLLIYKISNRFSGVPDRFSGSGAGTDFTLKISRVEAEDVGVYYCMQARQFPLTFGGGTKVEIKRTVAAPSVFIFPPSDEQLKSGTASVVCLLNNFYPREAKVQWKVDNALQSGNSQESVTEQDSKDSTYSLSSTLTLSKADYEKHKVYACEVTHQGLSSPVTKSFNRGEC	Kd [11]: 7.7 nM; koff [11]: 0.0012 s⁻¹; kon [11]: 160000 M⁻¹ s⁻¹; pTrkA counts per second, NGF +1 pM mAb [9]: 4.86e+06 counts per second; pTrkA counts per second, NGF +10 pM mAb [9]: 4.46e+06 counts per second; pTrkA counts per second, NGF +100 pM mAb [9]: 5.16e+06 counts per second; pTrkA counts per second, NGF +1 nM mAb [9]: 3.3e+06 counts per second; pTrkA counts per second, NGF +10 nM mAb [9]: 2.87e+06 counts per second; pTrkA counts per second, NGF +100 nM mAb [9]: 2.34e+06 counts per second; pTrkA counts per second, NGF +1 uM mAb [9]: 2.99e+06 counts per second; IC50 [10]: 0.27 nM
0.3	0.16	50	0.21	571000	613000	664000	922000	1.54e+06	1.69e+06	1.77e+06	1.63e+06	0.15	0.92	0.77	0.16	1.03	65	1.6	3.38e+06	mAb C (antibody, human IgG4 S228P, kappa, F234A L235A, Human IgG4PAA/Kappa) heavy: not shown light: DIVMTQTPLSSPVTLGQPASISCRSSQSLVHRQGNTYLSWLQQRPGQPPRLLIYKISNRFSGVPDRFSGSGAGTDFTLKISRVEAEDVGVYYCMQARQFPLTFGGGTKVEIKRTVAAPSVFIFPPSDEQLKSGTASVVCLLNNFYPREAKVQWKVDNALQSGNSQESVTEQDSKDSTYSLSSTLTLSKADYEKHKVYACEVTHQGLSSPVTKSFNRGEC	pTrkA counts per second, NGF +1 pM mAb [9]: 3.05e+06 counts per second; pTrkA counts per second, NGF +10 pM mAb [9]: 3.68e+06 counts per second; pTrkA counts per second, NGF +100 pM mAb [9]: 2.95e+06 counts per second; pTrkA counts per second, NGF +1 nM mAb [9]: 2.67e+06 counts per second; pTrkA counts per second, NGF +10 nM mAb [9]: 1.53e+06 counts per second; pTrkA counts per second, NGF +100 nM mAb [9]: 1.58e+06 counts per second; pTrkA counts per second, NGF +1 uM mAb [9]: 1.3e+06 counts per second; IC50 [10]: 0.28 nM
